Experimental data as given in publication doi:10.1101/2020.07.01.179531v1.

Substrate: O=P(O)(O)OC[C@@H](O)[C@@H](O)[C@H](O)[C@H](O)CO
Experiment: purified protein
Conditions: 3 mM DTT added; other conditions presumably as for EsM1Pase1short

B1: EsM1Pase2 (Ectocarpus siliculosus) (protein)
chain: MEKAKAFDKMSILFDFDGTIGDTETPAMEVAFWELAPYLPDTTPDKLDGLMPEFVRDNAGKAFEFMVEKVDEDRKAAGLSTISEAFAAKSEPKEMLDAVDPHRKKFGLKTFAELRAPDGGEKENLLIQQKTETVDALSKIAQPCNGVPEVLAALTAAGVAFCISTTSPKPRVPASITACKLDEYFPADKVHSGESDFDPPRFKPNPSVYLKAAETEGKEPANCIAVEDSGSGVGSASNAGVGLTVGYVGASHIPDYKKDTHAEMLMSGGRAENGKGAEIVISDMTDLPKVIEFFAGEKIAGKSAPFDFPEELISSLKQPVWVHSTKA
Km: 1300 µM
kcat: 0.05 s⁻¹
